The values that follow come from paper PMC6858450.

A word on the Kd: it is the equilibrium constant for the complex coming apart.

Primed or numbered codes have the meaning given here. No end group written: not given here. *: point of attachment. Mca = COc1ccc2c(CC(=O)*)cc(=O)oc2c1; Dnp′ = not defined here

Data set [1] relates to securin-separase fusion C2029S (catalytically dead) (Homo sapiens). Kind of data set: fluorescence polarization. Particulars: 25 mM HEPES pH 7.8, 50 mM KCl, 5 mM MgCl2, 0.5 mM TCEP; 1 nM DNA; 30 min at 25 °C.
For data set [2], the target named is active (apo, securin-free) human separase (human) (UniProt Q14674).
For data set [3] the target is unchanged. This is another data set of the same source.
Data set [4] has the same target. This is another data set of the same source.

UniProt Q14674, sequence (Q14674 whole entry S1126A): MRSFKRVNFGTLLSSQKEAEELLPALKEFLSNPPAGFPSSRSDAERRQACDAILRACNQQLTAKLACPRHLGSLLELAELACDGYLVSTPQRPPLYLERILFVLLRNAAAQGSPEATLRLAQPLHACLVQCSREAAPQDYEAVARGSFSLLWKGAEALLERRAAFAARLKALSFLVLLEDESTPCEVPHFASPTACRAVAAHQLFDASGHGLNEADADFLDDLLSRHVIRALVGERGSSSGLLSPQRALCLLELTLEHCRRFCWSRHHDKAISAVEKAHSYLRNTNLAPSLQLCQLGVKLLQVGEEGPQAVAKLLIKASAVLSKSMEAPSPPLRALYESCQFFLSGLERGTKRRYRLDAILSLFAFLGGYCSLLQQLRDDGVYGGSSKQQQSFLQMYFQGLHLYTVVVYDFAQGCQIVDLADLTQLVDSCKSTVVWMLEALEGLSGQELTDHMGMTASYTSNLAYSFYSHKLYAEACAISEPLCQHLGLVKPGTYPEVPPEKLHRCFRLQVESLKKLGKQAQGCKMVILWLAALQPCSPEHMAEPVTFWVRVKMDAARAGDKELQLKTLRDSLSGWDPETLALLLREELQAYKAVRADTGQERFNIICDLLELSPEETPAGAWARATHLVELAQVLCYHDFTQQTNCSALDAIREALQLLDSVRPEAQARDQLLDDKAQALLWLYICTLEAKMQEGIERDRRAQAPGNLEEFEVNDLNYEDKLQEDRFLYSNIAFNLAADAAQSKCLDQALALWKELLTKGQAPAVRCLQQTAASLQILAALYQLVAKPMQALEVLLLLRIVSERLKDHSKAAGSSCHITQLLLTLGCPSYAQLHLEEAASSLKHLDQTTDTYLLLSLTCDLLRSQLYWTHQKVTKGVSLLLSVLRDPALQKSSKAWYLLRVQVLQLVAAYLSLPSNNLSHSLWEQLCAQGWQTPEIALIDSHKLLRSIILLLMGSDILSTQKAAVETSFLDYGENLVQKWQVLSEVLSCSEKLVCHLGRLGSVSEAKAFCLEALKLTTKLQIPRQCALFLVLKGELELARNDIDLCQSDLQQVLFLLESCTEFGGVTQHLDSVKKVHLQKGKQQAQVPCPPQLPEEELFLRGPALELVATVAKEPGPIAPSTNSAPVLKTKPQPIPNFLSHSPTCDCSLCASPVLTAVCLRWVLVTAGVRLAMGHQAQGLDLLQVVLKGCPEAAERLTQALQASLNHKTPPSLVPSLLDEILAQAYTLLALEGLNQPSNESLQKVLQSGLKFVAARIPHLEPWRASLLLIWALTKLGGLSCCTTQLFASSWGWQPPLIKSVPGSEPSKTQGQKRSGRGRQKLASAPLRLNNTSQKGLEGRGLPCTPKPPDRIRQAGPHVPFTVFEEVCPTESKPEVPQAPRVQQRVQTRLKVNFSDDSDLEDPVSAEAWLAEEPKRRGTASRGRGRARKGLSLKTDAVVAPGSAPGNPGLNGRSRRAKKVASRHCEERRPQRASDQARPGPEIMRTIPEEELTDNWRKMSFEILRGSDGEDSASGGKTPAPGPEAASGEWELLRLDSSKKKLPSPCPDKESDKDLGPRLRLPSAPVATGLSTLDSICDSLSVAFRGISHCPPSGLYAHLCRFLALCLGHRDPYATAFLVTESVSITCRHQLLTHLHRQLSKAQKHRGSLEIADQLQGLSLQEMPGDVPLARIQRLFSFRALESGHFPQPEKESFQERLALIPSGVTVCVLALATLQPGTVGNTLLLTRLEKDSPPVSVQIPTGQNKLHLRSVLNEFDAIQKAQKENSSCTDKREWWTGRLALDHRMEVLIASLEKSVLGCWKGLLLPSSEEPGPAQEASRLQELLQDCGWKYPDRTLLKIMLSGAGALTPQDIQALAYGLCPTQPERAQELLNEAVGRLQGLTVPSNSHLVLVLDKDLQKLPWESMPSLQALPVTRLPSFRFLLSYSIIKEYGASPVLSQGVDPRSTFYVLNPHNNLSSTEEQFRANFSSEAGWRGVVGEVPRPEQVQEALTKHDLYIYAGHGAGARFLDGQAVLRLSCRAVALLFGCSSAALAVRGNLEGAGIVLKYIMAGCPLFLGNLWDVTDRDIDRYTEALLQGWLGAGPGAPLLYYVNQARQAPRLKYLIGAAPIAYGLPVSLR

With 25 bp, in data set [1], the Kd was determined as 800 nM. 50 bp had a Kd in data set [1] of 300 nM. The molecule 50 bp 2 gave a Kd in data set [1] of 220 nM.

B1: Mca-…-Dnp, Scc1 site 1 substrate peptide (peptide)
peptide: Mca-DDREIMREGS-{Dnp′}
In the case of B1, the KM of cleavage of the FRET dye-quencher peptide by purified active separase (Michaelis-Menten analysis) in data set [2] worked out at 70 µM.

B2: securin^RE fragment (aa 93-150) (domain or fragment)
chain: MTEKTVKAKSSVPASDDAYPEIEKFREFNPLDFESFDLPEEHQIAHLPLSGVPLMILD
modifications: also: 35S-methionine-labeled
B2: in data set [3], the cleavage of the 35S-labeled securin^RE fragment (93-150) by separase in vitro (SDS-PAGE, Phosphorimaging) stood at 50%.

B3: separase biosensor H2B-mRuby2-Scc1(142-467)-mNeonGreen, ^255Leu-Pro to Ala-Ala (domain or fragment)
chain: EITMREEVGNISILQENDFGDFGMDDREIMREGSAFEDDDMLVSTTTSNLLLESEQSTSNLNEKINHLEYEDQYKDDNFGEGNDGGILDDKLISNNDGGIFDDPPALSEAGVMAAEQPAHDDMDEDDNVSMGGPDSPDSVDPVEPMPTMTDQTTLVPNEEEAFALEPIDITVKETKAKRKRKLIVDSVKELDSKTIRAQLSDYSDIVTTLDLAPPTKKLMMWKETGGVEKLFSLPAQPLWNNRLLKLFTRCLTPLVPEDLRKRRKGGEADNLDEFLKEFENPEVPREDQQQQHQQRDVIDEPIIEEPSRLQESVMEASRTNIDESA
On to B3, for which the cleavage of the separase biosensor in U2OS cells in anaphase (loss of GFP relative to RFP on chromosomes); the enzyme is the endogenous separase of the cells in data set [4] was 50%.
